Our source for the koff, kon and Kd values is patent publication US20150111231A1.

Experiment [1] addresses human sAPPβ (MESO SCALE DISCOVERY) (human) (UniProt P05067). The experiment can be described thus: SPR (ProteOn, GLM chip), 5H10 immobilised, sAPPβ as analyte.
Experiment [2] shares this target. The experiment can be described thus: SPR (ProteOn), 5H10 immobilized on GLM chip, sAPPβ as analyte at 1000, 250, 62.5, 15.6, 3.91 nM.

Sequence of human sAPPβ (MESO SCALE DISCOVERY) (human) (P05067 18-671): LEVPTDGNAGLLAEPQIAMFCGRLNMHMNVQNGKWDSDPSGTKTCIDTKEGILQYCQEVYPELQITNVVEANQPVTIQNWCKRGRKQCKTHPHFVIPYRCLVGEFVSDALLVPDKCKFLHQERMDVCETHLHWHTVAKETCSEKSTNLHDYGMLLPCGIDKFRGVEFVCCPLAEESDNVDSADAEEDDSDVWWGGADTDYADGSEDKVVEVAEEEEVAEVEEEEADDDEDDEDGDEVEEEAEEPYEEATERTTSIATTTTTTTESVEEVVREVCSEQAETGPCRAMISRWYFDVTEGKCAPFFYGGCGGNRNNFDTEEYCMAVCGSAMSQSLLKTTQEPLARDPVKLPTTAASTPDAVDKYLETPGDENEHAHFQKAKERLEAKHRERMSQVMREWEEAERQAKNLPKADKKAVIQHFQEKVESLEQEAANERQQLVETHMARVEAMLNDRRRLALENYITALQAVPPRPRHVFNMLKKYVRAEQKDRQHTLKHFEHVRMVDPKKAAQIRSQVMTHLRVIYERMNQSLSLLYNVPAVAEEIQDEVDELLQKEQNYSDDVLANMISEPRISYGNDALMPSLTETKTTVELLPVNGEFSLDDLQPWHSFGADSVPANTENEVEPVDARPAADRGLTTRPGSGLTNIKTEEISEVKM

B1: anti-internal structure antibody 5H10 (antibody, IgG1, V domains shown)
VH: QVQLQQSGTELAKPGASVKMSCKASGYTFIDYWMHWIKQSPGQGLEWIGFINPRSGSTTYNQKFRDKATLTVDTSSSTAYMQLTSLTSEDSAVYYCTRPDFDYFDYWGQGTTLTVSS
VL: DVLMTQTPLSLPVSLGDHASISCRSSQSIVQSNGNTYLEWYLQKPGQSPKLLIYKVSNRFSGVPDRFSGSGSGTDFTLKISSVEAEDLGIYYCFQASHVPLTFGAGTKLELKR
In experiment [1], B1 gave an off-rate constant (koff) of 5.62e-05 s⁻¹ and an association rate constant (kon) of 90800 M⁻¹ s⁻¹. The Kd in experiment [2] was found to be 0.62 nM.

In general, koff refers to a measure of how fast the partners let go of each other. For orientation: kon means a measure of how fast the partners come together. The low end stands for slow association, the high end for fast association. By Kd is commonly meant a measure of binding affinity in units of concentration. A lower Kd goes with higher affinity.
